Experimental data from paper doi:10.1101/2024.04.26.590571.

Molecular target: NB-protein (BchN-BchB α2β2 heterotetramer), electron acceptor component of Rhodobacter sphaeroides DPOR (Rhodobacter sphaeroides)
Assay: cryo-EM structure

L-protein (BchL homodimer), electron donor component of Rhodobacter sphaeroides DPOR, sequence (Q9RFD6 whole entry): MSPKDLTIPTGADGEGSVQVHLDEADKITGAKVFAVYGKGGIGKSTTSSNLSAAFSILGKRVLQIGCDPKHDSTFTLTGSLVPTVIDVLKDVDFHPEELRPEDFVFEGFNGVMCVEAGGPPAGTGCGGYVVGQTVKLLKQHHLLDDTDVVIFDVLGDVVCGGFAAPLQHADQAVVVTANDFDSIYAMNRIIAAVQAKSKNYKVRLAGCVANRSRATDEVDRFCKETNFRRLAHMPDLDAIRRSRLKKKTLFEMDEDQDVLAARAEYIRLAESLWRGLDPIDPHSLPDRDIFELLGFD

stoichiometry N (L-protein dimer per NB-protein tetramer): 1
stoichiometry N (L-protein dimers per NB-protein tetramer): 2
Substance: L-protein (BchL homodimer), electron donor component of Rhodobacter sphaeroides DPOR (from UniProt Q9RFD6 1-297) (enzyme)
